Columns and labels:
[1] = system: ALC1-catalyzed remodeling of WT/WT nucleosomes; experiment: Ensemble FRET nucleosome remodeling, WT/WT nucleosomes; format: biochemical, Homo sapiens ALC1; Xenopus laevis histones; conditions: WT/WT end-positioned nucleosomes, saturating remodeler and ATP
Excerpt: (§1) cDNAs for ALC1 and PARP1 were of Homo sapiens origin. Histone proteins (recombinantly expressed in E. coli) were of Xenopus laevis origin. Cell lines as well as growth conditions are described in the Method Details.
(§2) Oligonucleotides used in this study were ordered from IDT (see Table S3). The ALC1^fl (16-879) construct contains the human ALC1 sequence and a 6xHis-tag, as previously published ([Lehmann et al., 2017]). All point mutations were generated by PCR-based site-directed mutagenesis. The plasmid for human PARP1 (1-1014) with an N-terminal 6xHis-tag was a kind gift from John M. Pascal ([Langelier et al., 2017]).
(§3) The DNA constructs used in the nucleosome assembly for single-molecule and ensemble remodeling studies comprised the Widom 601 nucleosome positioning sequence ([Lowary and Widom, 1998]) as well as either 3 bp or 12 bp of linker DNA on one side and 78 bp on the other side (for the single-molecule remodeling construct) or 63 bp of linker DNA on one side and no linker DNA on the other side (for the ensemble remodeling construct). […] The DNA constructs for the assembly of nucleosomes used in fluorescence anisotropy experiments and ATPase assays comprised the Widom 601 positioning sequence without additional linker DNA (for the fluorescence anisotropy construct) or 63 bp of linker DNA on one side and no linker DNA on the other side (for the ATPase assay construct). […]
Nucleosome ensemble remodeling kinetics were measured by monitoring the Cy5 (under 620 nm and 520 nm excitation) and Cy3 (under 520 nm excitation) fluorescence emission signals of a solution of FRET-labeled nucleosomes using a Spark (Tecan) or CLARIOstar (BMG Labtech) multimode microplate reader. […] Reaction kinetics were analyzed assuming a standard Michaelis-Menten mechanism.
(§4) For fluorescence anisotropy binding experiments, the reported values represent the mean ± SEM from 3 independent experiments. […] For ensemble nucleosome remodeling time courses, each experimental condition was recorded in 3 independent experiments, and representative remodeling time courses are shown. […]

[2] = system: ALC1-catalyzed remodeling of APM/APM nucleosomes; experiment: Ensemble FRET nucleosome remodeling, APM/APM versus WT/WT nucleosomes; format: biochemical, Homo sapiens ALC1; Xenopus laevis histones; conditions: 20 μM remodeler, 10 nM nucleosomes, 1.5 mM ATP; n = 3 independent experiments
Excerpt: as §1, §2, §3

[3] = system: individual WT/WT nucleosomes; experiment: smFRET remodeling directionality, WT/WT nucleosomes; format: biochemical, Xenopus laevis histones; conditions: 2.5 μM remodeler, 1 mM ATP, n > 100 traces
Excerpt: (§5) The DNA constructs used in the nucleosome assembly for single-molecule and ensemble remodeling studies comprised the Widom 601 nucleosome positioning sequence ([Lowary and Widom, 1998]) as well as either 3 bp or 12 bp of linker DNA on one side and 78 bp on the other side (for the single-molecule remodeling construct) or 63 bp of linker DNA on one side and no linker DNA on the other side (for the ensemble remodeling construct). All constructs were 5’-labeled with Cy5 on the short linker end. The constructs for single-molecule experiments additionally featured a biotin on the long linker end. […] The DNA constructs for the assembly of nucleosomes used in fluorescence anisotropy experiments and ATPase assays comprised the Widom 601 positioning sequence without additional linker DNA (for the fluorescence anisotropy construct) or 63 bp of linker DNA on one side and no linker DNA on the other side (for the ATPase assay construct). […]
(§6) Using the DNA constructs for single-molecule FRET described above, we first generated oriented hexasomes with H2A-Cy3 on the short linker side using a salt dialysis method as described previously ([Dyer et al., 2004]; [Levendosky et al., 2016]; [Sabantsev et al., 2019]). […] Data were analyzed using custom scripts for the Fiji distribution of ImageJ ([Schindelin et al., 2012]; [Schneider et al., 2012]), IDL, and MATLAB ([Sabantsev et al., 2019]). […]

[4] = system: individual WT/APM nucleosomes; experiment: smFRET remodeling directionality, WT/APM nucleosomes; format: biochemical, Xenopus laevis histones; conditions: 2.5 μM remodeler, 1 mM ATP, n > 100 traces
Excerpt: as §5, §6

[5] = system: ALC1 ATPase with WT/WT nucleosomes; experiment: Nucleosome-stimulated ATPase activity; format: biochemical, Homo sapiens ALC1; Xenopus laevis histones; conditions: 20 μM ALC1 with 2 μM WT/WT nucleosomes versus 1 μM ALC1 with dsDNA, 1 mM ATP
Method: (§7) ATPase activity was measured using a coupled assay that measures ADP production as described previously, ([Willhoft et al., 2016]). Final concentrations of 0.45 mM NADH, 1.0 mM phosphoenolpyruvate, 54 U/ml pyruvate kinase (Sigma), and 78 U/ml lactic dehydrogenase (Sigma) were used. For measurements of nucleosome-stimulated ATPase activity, reactions contained 20 μM ALC1,2 μM WT/WT nucleosomes, and 1 mM ATP in a volume of 30 μl. Fluorescence was monitored (excitation wavelength: 340 nm; emission wavelength: 430 nm) at 37°C using a CLARIOstar microplate reader (BMG Labtech) and black low-volume 384-well microplates (Corning). For measurements of DNA-stimulated ATPase activity, the absorbance was monitored at 340 nm for reactions containing a final of 1 μM ALC1 and either 20 μM or 50 μM 145 bp nucleosomal double-stranded (ds) DNA in 100 μl. Reaction rates were determined using mean linear slopes. For measurements of nucleosome-stimulated ATPase activity, we estimated Vmax for both ALC1^fl R860W and ALC1^fl R611A/S612A/R860W using the Michaelis-Menten equation and the Km values that we obtained from nucleosome sliding kinetics in Figure 3B.
For fluorescence anisotropy binding experiments, the reported values represent the mean ± SEM from 3 independent experiments. For ATPase activity measurements, the reported values represent the mean ± standard deviation from 3 independent experiments. For ensemble nucleosome remodeling time courses, each experimental condition was recorded in 3 independent experiments, and representative remodeling time courses are shown. Relative remodeling rates derived from these curves represent the mean ± standard deviation from 3 independent experiments. For smFRET experiments, values are reported as mean ± SEM from several experiments as specified in the corresponding figure legends. For association kinetics from live-cell imaging, error bars represent SEM from N ≥ 131 traces from 3 independent experiments.

[6] = system: ALC1 ATPase with 145 bp dsDNA; experiment: DNA-stimulated ATPase activity; format: biochemical, Homo sapiens ALC1; conditions: 1 μM ALC1, 20 μM or 50 μM 145 bp dsDNA, 1 mM ATP; N = 3 independent experiments
Method: as §7, with “For measurements of nucleosome-stimulated ATPase activity, we estimated Vmax for both ALC1^fl R860W and ALC1^fl R611A/S612A/R860W using the Michaelis-Menten equation and the Km values that we obtained from nucleosome sliding kinetics in Figure 3B.” left out
as §4

B1: ALC1^fl R860W: constitutively active mutant of ALC1 (protein)
chain: FLLRLHTEGRAEAARVQEQDLRQWGLTGIHLRSYQLEGVNWLAQRFHCQNGCILGDEMGLGKTCQTIALFIYLAGRLNDEGPFLILCPLSVLSNWKEEMQRFAPGLSCVTYAGDKEERACLQQDLKQESRFHVLLTTYEICLKDASFLKSFPWSVLVVDEAHRLKNQSSLLHKTLSEFSVVFSLLLTGTPIQNSLQELYSLLSFVEPDLFSKEEVGDFIQRYQDIEKESESASELHKLLQPFLLRRVKAEVATELPKKTEVVIYHGMSALQKKYYKAILMKDLDAFENETAKKVKLQNILSQLRKCVDHPYLFDGVEPEPFEVGDHLTEASGKLHLLDKLLAFLYSGGHRVLLFSQMTQMLDILQDYMDYRGYSYERVDGSVRGEERHLAIKNFGQQPIFVFLLSTRAGGVGMNLTAADTVIFVDSDFNPQNDLQAAARAHRIGQNKSVKVIRLIGRDTVEEIVYRKAASKLQLTNMIIEGGHFTLGAQKPAADADLQLSEILKFGLDKLLASEGSTMDEIDLESILGETKDGQWVSDALPAAEGGSRDQEEGKNHMYLFEGKDYSKEPSKEDRKSFEQLVNLQKTLLEKASQEGRSLRNKGSVLIPGLVEGSTKRKRVLSPEELEDRQKKRQEAAAKRRRLIEEKKRQKEEAEHKKKMAWWESNNYQSFCLPSEESEPEDLENGEESSAELDYQDPDATSLKYVSGDVTHPQAGAEDALIVHCVDDSGHWGRGGLFTALEKRSAEPRKIYELAGKMKDLSLGGVLLFPVDDKESRNKGQDLLALIVAQHRDRSNVLSGIKMAALEEGLKKIFLAAKKKKASVHLPRIGHATKGFNWYGTERLIWKHLAARGIPTYIYYFPRSK
modifications: left off: His6, end not stated, state not stated
In the case of B1, the “FRET change upon addition of remodeler and ATP” value [1] is reported as “FRET decreased”, the “fold decrease in remodeling rate, APM/APM versus WT/WT nucleosomes” value [2] is reported as ~ 13.7 fold and the “fraction of single-nucleosome remodeling traces with initial decrease in FRET (toward longer linker DNA)” value [3] is reported as 62%. The “fraction of traces with opposite directionality (toward shorter linker DNA)” value [3] was 38%, the “fraction of WT/APM nucleosomes moved toward the shorter linker end” value [4] was 89% and the “nucleosome-stimulated ATPase activity, fold higher than DNA-stimulated ATPase activity” value [5] was ~ 1.6 fold. The “DNA-stimulated ATPase activity, ALC1^fl R860W versus ALC1^fl R611A/S612A/R860W” value [6] was “essentially identical DNA-stimulated ATPase activity”.

From paper PMC7116876, “Mechanistic Insights into Regulation of the ALC1 Remodeler by the Nucleosome Acidic Patch” (Cell reports, 2020)
